Assays:
Assay in all cases: BLI; Fortebio Octet Red96; SHH002-hu1 captured on Anti-Human Fab-CH1 2nd Generation Sensor; rhFzd1/2/5/7/8 in solution at different concentrations (rhFzd7: 6.25, 25, 100, 400 nmol/L); KB buffer (0.1% BSA + 0.05% Tween 20 in PBS, pH 7.2); KD from kd/ka
Settings in all cases: both partners purified
rhFzd7 = target: T1, rhFzd7 (Homo sapiens, UniProt O75084)
T1 construct: Frizzled-7, human, recombinant; the discussion says only that the recombinant human Fzd7 extracellular CRD protein was used to immunize mice; also called recombinant human Frizzled-7

rhFzd1 = target: T2, rhFzd1 (Homo sapiens, UniProt Q9UP38)
T2 construct: Frizzled-1, human, recombinant

rhFzd5 = target: T3, rhFzd5 (Homo sapiens, UniProt Q13467)
T3 construct: Frizzled-5, human, recombinant

rhFzd2 = target: T4, rhFzd2 (Homo sapiens, UniProt Q14332)
T4 construct: Frizzled-2, human, recombinant

rhFzd8 = target: T5, rhFzd8 (Homo sapiens, UniProt Q9H461)
T5 construct: Frizzled-8, human, recombinant
T5 sequence (Q9H461 28-694): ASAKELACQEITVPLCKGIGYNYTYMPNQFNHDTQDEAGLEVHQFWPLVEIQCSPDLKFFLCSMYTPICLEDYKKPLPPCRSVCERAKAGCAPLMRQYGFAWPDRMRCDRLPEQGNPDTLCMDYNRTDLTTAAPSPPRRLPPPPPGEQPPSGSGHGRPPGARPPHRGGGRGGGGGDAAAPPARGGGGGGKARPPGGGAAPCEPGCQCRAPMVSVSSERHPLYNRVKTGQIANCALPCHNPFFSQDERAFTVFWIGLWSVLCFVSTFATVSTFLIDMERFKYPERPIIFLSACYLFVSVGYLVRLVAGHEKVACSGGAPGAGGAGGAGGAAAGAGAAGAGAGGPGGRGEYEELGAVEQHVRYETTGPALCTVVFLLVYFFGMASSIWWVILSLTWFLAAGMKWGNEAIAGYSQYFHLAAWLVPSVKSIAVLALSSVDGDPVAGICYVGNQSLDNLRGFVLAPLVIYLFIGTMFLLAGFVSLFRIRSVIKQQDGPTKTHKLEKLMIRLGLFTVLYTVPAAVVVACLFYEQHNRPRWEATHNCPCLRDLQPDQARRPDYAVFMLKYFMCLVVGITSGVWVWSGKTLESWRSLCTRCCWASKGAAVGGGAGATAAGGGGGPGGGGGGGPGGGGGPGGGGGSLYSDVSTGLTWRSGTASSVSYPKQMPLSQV

T3 sequence (Q13467 27-585): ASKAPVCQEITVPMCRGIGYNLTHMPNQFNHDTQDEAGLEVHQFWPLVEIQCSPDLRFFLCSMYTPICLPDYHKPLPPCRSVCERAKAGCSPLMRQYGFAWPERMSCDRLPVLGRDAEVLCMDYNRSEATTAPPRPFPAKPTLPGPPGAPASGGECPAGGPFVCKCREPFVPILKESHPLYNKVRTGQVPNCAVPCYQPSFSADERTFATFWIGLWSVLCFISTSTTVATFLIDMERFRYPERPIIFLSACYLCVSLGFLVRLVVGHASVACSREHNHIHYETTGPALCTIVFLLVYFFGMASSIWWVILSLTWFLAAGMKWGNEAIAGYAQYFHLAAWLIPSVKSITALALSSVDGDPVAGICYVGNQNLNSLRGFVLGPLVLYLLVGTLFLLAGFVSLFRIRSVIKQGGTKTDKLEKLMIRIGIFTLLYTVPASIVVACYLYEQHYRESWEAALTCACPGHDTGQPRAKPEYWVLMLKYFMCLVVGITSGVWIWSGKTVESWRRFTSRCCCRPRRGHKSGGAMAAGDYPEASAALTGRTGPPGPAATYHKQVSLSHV
T4 sequence (Q14332 24-565): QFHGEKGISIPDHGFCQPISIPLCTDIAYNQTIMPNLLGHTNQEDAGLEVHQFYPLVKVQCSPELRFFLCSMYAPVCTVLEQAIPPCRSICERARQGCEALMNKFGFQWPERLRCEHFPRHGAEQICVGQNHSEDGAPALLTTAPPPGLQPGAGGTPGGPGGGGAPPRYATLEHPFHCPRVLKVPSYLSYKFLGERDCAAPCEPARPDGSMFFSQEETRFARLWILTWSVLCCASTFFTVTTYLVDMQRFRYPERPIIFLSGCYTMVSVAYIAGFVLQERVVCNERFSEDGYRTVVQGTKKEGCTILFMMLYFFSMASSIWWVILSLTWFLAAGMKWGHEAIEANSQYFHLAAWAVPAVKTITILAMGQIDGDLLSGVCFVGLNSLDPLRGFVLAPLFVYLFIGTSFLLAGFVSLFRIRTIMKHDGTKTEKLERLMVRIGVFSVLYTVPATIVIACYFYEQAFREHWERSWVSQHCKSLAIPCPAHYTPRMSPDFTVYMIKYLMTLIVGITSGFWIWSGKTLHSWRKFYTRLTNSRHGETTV
T2 sequence (Q9UP38 70-647): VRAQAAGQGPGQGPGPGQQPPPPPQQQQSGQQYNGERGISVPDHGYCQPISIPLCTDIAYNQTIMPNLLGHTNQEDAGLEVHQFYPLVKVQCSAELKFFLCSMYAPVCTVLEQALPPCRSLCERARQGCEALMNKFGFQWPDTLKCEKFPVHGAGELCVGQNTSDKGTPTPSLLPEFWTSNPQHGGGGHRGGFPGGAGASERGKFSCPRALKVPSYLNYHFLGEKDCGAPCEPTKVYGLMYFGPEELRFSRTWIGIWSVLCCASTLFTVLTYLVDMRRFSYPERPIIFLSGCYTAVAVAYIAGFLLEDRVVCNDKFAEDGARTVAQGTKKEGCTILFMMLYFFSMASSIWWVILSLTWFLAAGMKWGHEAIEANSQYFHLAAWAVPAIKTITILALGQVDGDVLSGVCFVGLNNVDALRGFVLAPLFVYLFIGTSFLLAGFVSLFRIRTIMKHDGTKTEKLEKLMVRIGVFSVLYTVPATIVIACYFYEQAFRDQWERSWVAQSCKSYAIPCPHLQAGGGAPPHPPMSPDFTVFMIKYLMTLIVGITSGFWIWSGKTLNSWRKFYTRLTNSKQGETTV

B1: SHH002-hu1 (antibody, V domains shown)
VH: QVQLVQSGAEVKKPGASVKMSCKASGYTFTTYTMHWVRQAPGQGLEWIGYINPRSGYTNYNQKFQGRATVTADKSTSTAYMELSSLRSEDTAVYYCARRGYFDYWGQGTTVTVSS
VL: DIQLTQSPSSLSVSVGDRATITCRASESVDDYGNTFMHWYQQKPGKAPKLLIYLASNLQSGVPSRFSGSGSRTDFTLTISSVQAEDAATYYCQQNNEDPYTFGQGTKLEIK
notes: Whole antibody of 150 kDa (HC 50 kDa, LC 25 kDa); humanization degree 98%; detected with anti-human IgG H&L; also called humanized antibody targeting Fzd7; humanized anti-Fzd7 antibody
Kd (rhFzd7): < 1 pM
koff (rhFzd7): < 1e-07 s⁻¹
kon (rhFzd7): 400000 M⁻¹ s⁻¹
binding result (rhFzd1): no binding
binding result (rhFzd5): no binding
binding result (rhFzd2): no binding
binding result (rhFzd8): no binding
